From article PMC9872604, “Targeting Multidrug-Recalcitrant Pseudomonas aeruginosa Biofilms: Combined-Enzyme Treatment Enhances Antibiotic Efficacy” (Antimicrobial Agents and Chemotherapy, 2023)

Assays:
purified protein [1] = substrate: CCCCCCCCCC(=O)CC(=O)N[C@H]1CCOC1=O; assay: purified protein; format: biochemical, Ochrobactrum sp. T63; conditions: 50 mM sodium phosphate pH 6.8, 37 °C, 10 min, 5% methanol substrate
purified protein [2] = substrate: CCCC(=O)N[C@H]1CCOC1=O; assay: purified protein; format: biochemical, Ochrobactrum sp. T63; conditions: 50 mM sodium phosphate pH 6.8, 37 °C, 10 min, 5% methanol substrate

B1: AidH (Ochrobactrum sp. T63) (protein)
chain: MTINYHELETSHGRIAVRESEGEGAPLLMIHGNSSSGAIFAPQLEGEIGKKWRVIAPDLPGHGKSTDAIDPDRSYSMEGYADAMTEVMQQLGIADAVVFGWSLGGHIGIEMIARYPEMRGLMITGTPPVAREEVGQGFKSGPDMALAGQEIFSERDVESYARSTCGEPFEASLLDIVARTDGRARRIMFEKFGSGTGGNQRDIVAEAQLPIAVVNGRDEPFVELDFVSKVKFGNLWEGKTHVIDNAGHAPFREAPAEFDAYLARFIRDCTQ
notes: full aidH gene in pET28a(+) (BamHI/HindIII), His-tagged, expressed in E. coli BL21(DE3), Ni-NTA and size exclusion purified
Km (purified protein [1]): 240 ± 30 µM
kcat (purified protein [1]): 29.4 ± 1.7 s⁻¹
Km (purified protein [2]): 250 ± 30 µM
kcat (purified protein [2]): 39.8 ± 1.3 s⁻¹
